Reference: US20180011102A1 (University of Texas, published 2018)
One block for each binder: values may come before it.

B2: endogenous PGK1 (phosphoglycerate kinase 1) of U87 human GBM cells (enzyme)
chain: SLSNKLTLDKLDVKGKRVVMRVDFNVPMKNNQITNNQRIKAAVPSIKFCLDNGAKSVVLMSHLGRPDGVPMPDKYSLEPVAVELKSLLGKDVLFLKDCVGPEVEKACANPAAGSVILLENLRFHVEEEGKGKDASGNKVKAEPAKIEAFRASLSKLGDVYVNDAFGTAHRAHSSMVGVNLPQKAGGFLMKKELNYFAKALESPERPFLAILGGAKVADKIQLINNMLDKVNEMIIGGGMAFTFLKVLNNMEIGTSLFDEEGAKIVKDLMSKAEKNGVKITLPVDFVTADKFDENAKTGQATVASGIPAGWMGLDCGPESSKKYAEAVTRAKQIVWNGPVGVFEWEAFARGTKALMDEVVKATSRGCITIIGGGDTATCCAKWNTEDKVSHVSTGGGASLELLEGKVLPGVDALSNI
notes: Endogenous protein from cell lysates

Tests used:
[1] = target: B2; experiment: PGK1 immunoprecipitated from mitochondria of U87 cells, anti-PDHK1 immunoblot (FIG. 4B)
[2] = target: SFB-PDHK2 expressed in U87 cells (human, UniProt Q15119 1-407); experiment: streptavidin pull-down from mitochondrial fractions of U87 cells (FIG. 14C)
Procedure: (§1) Immunoblotting analyses were performed with the indicated antibodies. […] Immunoblotting analyses were performed with the indicated antibodies. […] Immunoblotting analyses were performed with the indicated antibodies. […] ATP concentrations in mitoplast isolated from U87 or U251 cells treated with or without hypoxia for 6 h were measured. […] Mitochondria fractions of U87 cells treated with or without hypoxia for 6 h were immunodepleted with or without an anti-PDHK1 pT338 antibody. Immunoblotting analyses were performed with the indicated antibodies. […] U87 and U251 cells expressing PGK1 shRNA were reconstituted to express WT rPGK1 or rPGK1 T378P. Immunoblotting analyses were performed with the indicated antibodies. FIGS. 14M-N. U87 and U251 cells with PGK1 shRNA and with reconstituted expression of WT rPGK1 or rPGK1 T378P were stimulated with or without hypoxia for 6 h. Mitochondria fractions were prepared. Immunoblotting analyses were performed with the indicated antibodies. […] Data represent the means±SD of three independent experiments. Immunoblotting analyses were performed with an anti-PGK1 antibody. […] U87 cells were stimulated with or without hypoxia for 6 h. Immunoblotting analyses of mitochondrial lysates were performed with the indicated antibodies.

[3] = target: B2; experiment: as above
Procedure: as §1

SFB-PGK1 Δ1-57 = target: T1, SFB-PGK1 Δ1-57 (human, UniProt P00558 58-417); experiment: streptavidin pull-down from U87 cells (FIG. 3D)
T1 construct: also called PGK1 Δ1-57 mutant; not shown: C-terminal SFB (S-Flag-Biotin) tag and any linker or added start Met of the pcDNA6/SFB construct
T1 sequence: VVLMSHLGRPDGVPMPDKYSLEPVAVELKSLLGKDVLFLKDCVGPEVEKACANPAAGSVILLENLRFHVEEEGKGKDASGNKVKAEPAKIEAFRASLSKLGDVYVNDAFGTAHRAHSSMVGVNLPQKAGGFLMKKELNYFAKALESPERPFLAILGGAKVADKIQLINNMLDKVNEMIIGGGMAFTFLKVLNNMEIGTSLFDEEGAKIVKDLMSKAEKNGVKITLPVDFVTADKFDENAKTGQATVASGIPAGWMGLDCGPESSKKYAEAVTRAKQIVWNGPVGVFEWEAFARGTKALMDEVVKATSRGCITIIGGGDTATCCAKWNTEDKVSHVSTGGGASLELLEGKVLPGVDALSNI

SFB-PGK1 R39/K41A = target: T2, SFB-PGK1 R39/K41A (human, UniProt P00558 1-417); experiment: streptavidin pull-down from U87 cells (FIG. 3E)
T2 construct: not shown: SFB (S-Flag-Biotin) tag, pcDNA6/SFB vector
T2 sequence (looked up): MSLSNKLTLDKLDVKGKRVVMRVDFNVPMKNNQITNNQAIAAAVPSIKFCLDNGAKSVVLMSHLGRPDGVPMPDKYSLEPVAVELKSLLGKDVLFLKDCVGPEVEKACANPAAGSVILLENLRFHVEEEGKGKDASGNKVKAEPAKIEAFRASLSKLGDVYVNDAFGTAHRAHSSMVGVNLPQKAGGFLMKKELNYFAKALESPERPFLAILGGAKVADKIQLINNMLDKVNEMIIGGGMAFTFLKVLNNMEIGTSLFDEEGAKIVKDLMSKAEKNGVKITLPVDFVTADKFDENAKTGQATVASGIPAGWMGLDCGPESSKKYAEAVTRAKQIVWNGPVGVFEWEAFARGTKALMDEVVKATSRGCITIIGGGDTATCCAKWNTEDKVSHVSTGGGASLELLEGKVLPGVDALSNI

- binding result [3]: no binding
B4: SFB-PDHK3 expressed in U87 cells (enzyme)
chain: not shown
notes: not shown: SFB tag, pcDNA6/SFB vector

- binding result (SFB-PGK1 Δ1-57): no binding
- binding result (SFB-PGK1 R39/K41A): no binding
B5: endogenous TOM20 of U87 cells (receptor, human, UniProt Q15388 1-145, looked up)
chain: MVGRNSAIAAGVCGALFIGYCIYFDRKRRSDPNFKNRLRERRKKQKLAKERAGLSKLPDLKDAEAVQKFFLEEIQLGEELLAQGEYEKGVDHLTNAIAVCGQPQQLLQVLQQTLPPPVFQMLLTKLPTISQRIVSAQSLAEDDVE

Second part, the binder before the results:

B1: endogenous PDHK1 of U87 cell mitochondria (enzyme)
chain: not shown
notes: also called pyruvate dehydrogenase kinase 1
- binding result [1]: binds

Binder: B2
- binding result [2]: no binding

B3: SFB-PDHK4 expressed in U87 cells (enzyme)
chain: not shown
notes: as for B4
- binding result [3]: no binding
